Assay [1] addresses T1, recombinant human HGF (R&D Systems, Catalog No. 294-HGN-025) (human, UniProt P14210 32-728). As to the kind of experiment: cell-based or functional assay.
The target in assay [2] is T1, recombinant human HGF (R&D Systems, …). As to the kind of experiment: SPR (BIAcore), KD at 25 C against KD at 37 C; upper end fits 2B8 in Table 19. As to the method: (§1) The antibodies were captured in an individual flow cell at a flow rate of 10 μL/min. Injection time was variable for each antibody to yield approximately 20 RU of antibody captured for each cycle. […] The dissociation phase was monitored for 15 or 90 minutes, depending on concentration. The surface of mouse anti-human immunoglobulins sensor chips was then regenerated with 10 mM Glycine-HCl, pH 2.2 (BIAcore, Catalog No. BR-1003-54) injected for 3 minutes at a flow rate of 60 μL/min before another cycle was initiated. The surface of rabbit anti-mouse immunoglobulins sensor chips was regenerated with 10 mM Glycine-HCl, pH 1.7 (BIAcore, Catalog No. BR-1003-54) injected for 3 minutes at a flow rate of 60 μL/min before another cycle was initiated.

Assay [3] has the same target. Put plainly: SPR (BIAcore), KD at 25 C against KD at 37 C; lower end fits sh2B8-9 in Table 19. As to the method: as §1

T1 sequence (P14210 32-728 limits assumed): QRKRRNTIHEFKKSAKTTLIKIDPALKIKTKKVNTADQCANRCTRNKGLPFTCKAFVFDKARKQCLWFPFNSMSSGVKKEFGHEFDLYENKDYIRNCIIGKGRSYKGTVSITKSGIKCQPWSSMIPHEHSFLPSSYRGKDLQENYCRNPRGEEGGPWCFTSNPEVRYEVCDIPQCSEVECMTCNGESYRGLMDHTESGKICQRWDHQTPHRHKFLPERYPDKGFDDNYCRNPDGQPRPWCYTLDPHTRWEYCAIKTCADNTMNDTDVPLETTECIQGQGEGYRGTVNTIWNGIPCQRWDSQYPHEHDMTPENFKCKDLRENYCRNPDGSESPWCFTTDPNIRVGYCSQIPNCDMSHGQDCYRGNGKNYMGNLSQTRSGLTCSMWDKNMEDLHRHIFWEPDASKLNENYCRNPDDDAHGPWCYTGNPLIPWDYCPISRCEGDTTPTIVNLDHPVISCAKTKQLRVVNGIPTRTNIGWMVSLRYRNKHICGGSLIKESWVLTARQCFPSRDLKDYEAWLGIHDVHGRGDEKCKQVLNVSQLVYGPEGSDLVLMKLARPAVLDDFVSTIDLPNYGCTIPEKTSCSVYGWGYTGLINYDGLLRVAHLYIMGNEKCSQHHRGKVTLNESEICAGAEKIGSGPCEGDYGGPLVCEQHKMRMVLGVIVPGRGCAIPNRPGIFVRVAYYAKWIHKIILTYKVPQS

B1: 2B8 (antibody, mouse IgG1, kappa)
heavy: QVQLQQPGAELVKPGTSVKLSCKASGYTFTTYWMHWVNQRPGQGLEWIGEINPTNGHTNYNEKFKSKATLTVDKSSSTAYMQLSSLTSEDSAVYYCARNYVGSIFDYWGQGTTLTVSSAKTTPPSVYPLAPGSAAQTNSMVTLGCLVKGYFPEPVTVTWNSGSLSSGVHTFPAVLQSDLYTLSSSVTVPSSTWPSETVTCNVAHPASSTKVDKKIVPRDCGCKPCICTVPEVSSVFIFPPKPKDVLTITLTPKVTCVVVDISKDDPEVQFSWFVDDVEVHTAQTQPREEQFNSTFRSVSELPIMHQDWLNGKEFKCRVNSAAFPAPIEKTISKTKGRPKAPQVYTIPPPKEQMAKDKVSLTCMITDFFPEDITVEWQWNGQPAENYKNTQPIMDTDGSYFVYSKLNVQKSNWEAGNTFTCSVLHEGLHNHHTEKSLSHSPGK
light: NIVMTQSPKSMSMSVGERVTLSCKASENVVSYVSWYQQKPAQSPKLLIYGASNRNTGVPDRFTGSGSATDFTLTISSVRAEDLADYHCGQSYNYPYTFGGGTRLEIKRADAAPTVSIFPPSSEQLTSGGASVVCFLNNFYPKDINVKWKIDGSERQNGVLNSWTDQDSKDSTYSMSSTLTLTKDEYERHNSYTCEATHKTSTSPIVKSFNRNEC
notes: also called murine 2B8; mouse 2B8
Take B1: the “HGF-stimulated c-Met phosphorylation in PC-3 cells, Average of Two Trials” value (“HGF-stimulated c-Met phosphorylation” below) in assay [1] was found to be 0.91 nM. The “fold smaller KD at 37° C. than at 25° C.” value in assay [2] lay within 1.4 to 3 fold.

B2: sh2B8-9 (G1m(3)) (antibody, human IgG1, kappa)
heavy: not shown
light: DIQMTQSPSSLSASVGDRVTITCKASENVVSYVSWYQQKPGKAPKLLIYGASNRNTGVPSRFSGSGSGTDFTLTISSLQPEDFATYYCGQSYNYPYTFGQGTKLEIKRTVAAPSVFIFPPSDEQLKSGTASVVCLLNNFYPREAKVQWKVDNALQSGNSQESVTEQDSKDSTYSLSSTLTLSKADYEKHKVYACEVTHQGLSSPVTKSFNRGEC
notes: superhumanized 2B8, human IgG1 G1m(3) allotype (allele 2), kappa Km(3) (allele 2), made in 293T cells
In the case of B2, in assay [3], the “fold smaller KD at 37° C. than at 25° C.” value lay within 1.4 to 3 fold. For the same molecule, in assay [1], the “HGF-stimulated c-Met phosphorylation” value came out at 0.93 nM.

B3: HE2B8-1 (antibody, human IgG1, kappa, V domains shown)
VH: QVQLVQPGAEVVKPGTSVKLSCKASGYTFTTYWMHWVNQAPGQGLEWIGEINPTNGHTNYNEKFKGKATLTVDKSTSTAYMELSSLRSEDTAVYYCARNYVGSIFDYWGQGTLLTVSS
VL: DIVMTQSPDSMAMSVGERVTLNCKASENVVSYVSWYQQKPGQSPKLLIYGASNRNTGVPDRFSGSGSATDFTLTISSVQAEDVADYHCGQSYNYPYTFGQGTKLEIKR
Take B3: the “HGF-stimulated c-Met phosphorylation” value in assay [1] stood at 0.8 nM.

B4: HE2B8-4 (antibody, human IgG1, kappa, V domains shown)
VH: QVQLVQPGAEVKKPGTSVKLSCKASGYTFTTYWMHWVRQAPGQGLEWIGEINPTNGHTNYNQKFQGRATLTVDKSTSTAYMELSSLRSEDTAVYYCARNYVGSIFDYWGQGTLLTVSS
VL: DIVMTQSPDSLAMSLGERVTLNCKASENVVSYVSWYQQKPGQSPKLLIYGASNRESGVPDRFSGSGSATDFTLTISSVQAEDVADYHCGQSYNYPYTFGQGTKLEIKR
Take B4: the “HGF-stimulated c-Met phosphorylation” value in assay [1] came to 0.75 nM.

B5: HE2B8-2 (antibody, human IgG1, kappa, V domains shown)
VH: QVQLVQPGAEVVKPGTSVKLSCKASGYTFTTYWMHWVNQAPGQGLEWIGEINPTNGHTNYNEKFKGKATLTVDKSTSTAYMELSSLRSEDTAVYYCARNYVGSIFDYWGQGTLLTVSS
VL: DIVMTQSPDSLAMSLGERVTLNCKASENVVSYVSWYQQKPGQSPKLLIYGASNRESGVPDRFSGSGSATDFTLTISSVQAEDVADYHCGQSYNYPYTFGQGTKLEIKR
On to B5, for which, in assay [1], the “HGF-stimulated c-Met phosphorylation” value was found to be 0.88 nM.

B6: HE2B8-3 (antibody, human IgG1, kappa, V domains shown)
VH: QVQLVQPGAEVKKPGTSVKLSCKASGYTFTTYWMHWVRQAPGQGLEWIGEINPTNGHTNYNQKFQGRATLTVDKSTSTAYMELSSLRSEDTAVYYCARNYVGSIFDYWGQGTLLTVSS
VL: DIVMTQSPDSMAMSVGERVTLNCKASENVVSYVSWYQQKPGQSPKLLIYGASNRNTGVPDRFSGSGSATDFTLTISSVQAEDVADYHCGQSYNYPYTFGQGTKLEIKR
As for B6, in assay [1], the “HGF-stimulated c-Met phosphorylation” value was found to be 0.79 nM.

Source of the values: patent US20100173362A1 (published 2010).
